Measured values: the supplement of paper PMC9112550, “Optimization of the antimicrobial peptide Bac7 by deep mutational scanning” (BMC Biology, 2022)

What follows are sequences tested on Escherichia coli TOP10 (assay: shrunken log2 fold change of peptide-encoding DNA abundance (4.5 h post-induction vs induction); higher = less antimicrobial activity (less host growth inhibition)). Conditions: time post-induction: 4.5 h; library: site-saturation at positions 5, 18, 19, 20.
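Further: peptides expressed intracellularly from a pBAD plasmid library in pooled LB shake-flask culture, induced with 0.3% L-arabinose, DNA abundance read by NGS, three biological replicates, DESeq2 with apeglm shrinkage.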

Question: For RRIRIRPPRLPRPRPRPNRHPRP, which “shrunken log2 fold change” value is on record?
Answer: Its value is -0.0899.

Question: How did the “shrunken log2 fold change” value turn out when RRIRIRPPRLPRPRPRPNSQPRP was run?
Answer: Its value is -0.523.

Question: Which “shrunken log2 fold change” value does the source give for RRIRIRPPRLPRPRPRPNSSPRP here?
Answer: The value was -0.369.

Question: For RRIRIRPPRLPRPRPRPNTRPRP, which “shrunken log2 fold change” value is on record?
Answer: The value was -0.507.

Question: For RRIRIRPPRLPRPRPRPNTVPRP, which “shrunken log2 fold change” value is on record?
Answer: Its value is -1.09.

Question: For RRIRIRPPRLPRPRPRPNWCPRP, which “shrunken log2 fold change” value is on record?
Answer: The value was -0.26.

Question: How did the “shrunken log2 fold change” value turn out when RRIRIRPPRLPRPRPRPNYFPRP was run?
Answer: The value was -0.749.

Question: For RRIRIRPPRLPRPRPRPNYWPRP, which “shrunken log2 fold change” value is on record?
Answer: The value was -0.728.

Question: How did the “shrunken log2 fold change” value turn out when RRIRIRPPRLPRPRPRPPACPRP was run?
Answer: Its value is 0.498.

Question: For RRIRIRPPRLPRPRPRPPALPRP, which “shrunken log2 fold change” value is on record?
Answer: Its value is 0.0147.

Question: How did the “shrunken log2 fold change” value turn out when RRIRIRPPRLPRPRPRPPANPRP was run?
Answer: The value was -0.0976.

Question: For RRIRIRPPRLPRPRPRPPCEPRP, which “shrunken log2 fold change” value is on record?
Answer: The value was 0.00219.

Question: RRIRIRPPRLPRPRPRPPDLPRP was tested. Which “shrunken log2 fold change” value did it give?
Answer: Its value is -0.00973.

Question: With RRIRIRPPRLPRPRPRPPHMPRP as the sequence, how does the “shrunken log2 fold change” value read?
Answer: Its value is -0.416.

Question: RRIRIRPPRLPRPRPRPPIVPRP was tested. Which “shrunken log2 fold change” value did it give?
Answer: The value was -0.68.

Question: For RRIRIRPPRLPRPRPRPPKAPRP, which “shrunken log2 fold change” value is on record?
Answer: Its value is -0.0729.

Question: With RRIRIRPPRLPRPRPRPPKKPRP as the sequence, how does the “shrunken log2 fold change” value read?
Answer: The value was -0.114.

Question: For RRIRIRPPRLPRPRPRPPKPPRP, which “shrunken log2 fold change” value is on record?
Answer: The value was 0.0539.

Question: Which “shrunken log2 fold change” value does the source give for RRIRIRPPRLPRPRPRPPLRPRP here?
Answer: The value was 0.0855.

Question: With RRIRIRPPRLPRPRPRPPMMPRP as the sequence, how does the “shrunken log2 fold change” value read?
Answer: Its value is 0.568.

Question: For RRIRIRPPRLPRPRPRPPMNPRP, which “shrunken log2 fold change” value is on record?
Answer: Its value is -0.368.

Question: How did the “shrunken log2 fold change” value turn out when RRIRIRPPRLPRPRPRPPMPPRP was run?
Answer: The value was -0.0926.

Question: For RRIRIRPPRLPRPRPRPPNDPRP, which “shrunken log2 fold change” value is on record?
Answer: Its value is -0.55.

Question: RRIRIRPPRLPRPRPRPPNNPRP was tested. Which “shrunken log2 fold change” value did it give?
Answer: Its value is -0.637.

Question: RRIRIRPPRLPRPRPRPPNTPRP was tested. Which “shrunken log2 fold change” value did it give?
Answer: The value was -0.464.

Question: How did the “shrunken log2 fold change” value turn out when RRIRIRPPRLPRPRPRPPNWPRP was run?
Answer: The value was 0.0636.

Question: RRIRIRPPRLPRPRPRPPNYPRP was tested. Which “shrunken log2 fold change” value did it give?
Answer: The value was -0.923.

Question: With RRIRIRPPRLPRPRPRPPPAPRP as the sequence, how does the “shrunken log2 fold change” value read?
Answer: Its value is 0.543.

Question: Which “shrunken log2 fold change” value does the source give for RRIRIRPPRLPRPRPRPPQDPRP here?
Answer: The value was 0.0725.

Question: Which “shrunken log2 fold change” value does the source give for RRIRIRPPRLPRPRPRPPQGPRP here?
Answer: The value was 0.123.

Question: With RRIRIRPPRLPRPRPRPPQWPRP as the sequence, how does the “shrunken log2 fold change” value read?
Answer: The value was 0.205.

Question: Which “shrunken log2 fold change” value does the source give for RRIRIRPPRLPRPRPRPPRAPRP here?
Answer: The value was 0.417.

Question: With RRIRIRPPRLPRPRPRPPRCPRP as the sequence, how does the “shrunken log2 fold change” value read?
Answer: The value was 0.0758.

Question: Which “shrunken log2 fold change” value does the source give for RRIRIRPPRLPRPRPRPPSKPRP here?
Answer: The value was 0.147.

Question: How did the “shrunken log2 fold change” value turn out when RRIRIRPPRLPRPRPRPPSTPRP was run?
Answer: Its value is 0.0126.

Question: Which “shrunken log2 fold change” value does the source give for RRIRIRPPRLPRPRPRPPSVPRP here?
Answer: Its value is -0.0681.

Question: RRIRIRPPRLPRPRPRPPTLPRP was tested. Which “shrunken log2 fold change” value did it give?
Answer: The value was -0.431.

Question: RRIRIRPPRLPRPRPRPPYPPRP was tested. Which “shrunken log2 fold change” value did it give?
Answer: Its value is -0.188.

Question: Which “shrunken log2 fold change” value does the source give for RRIRIRPPRLPRPRPRPPYRPRP here?
Answer: The value was -0.468.

Question: Which “shrunken log2 fold change” value does the source give for RRIRIRPPRLPRPRPRPPYWPRP here?
Answer: Its value is -0.00803.

Question: Which “shrunken log2 fold change” value does the source give for RRIRIRPPRLPRPRPRPQEAPRP here?
Answer: The value was 0.0332.

Question: How did the “shrunken log2 fold change” value turn out when RRIRIRPPRLPRPRPRPQEQPRP was run?
Answer: Its value is -0.0376.

Question: With RRIRIRPPRLPRPRPRPQHAPRP as the sequence, how does the “shrunken log2 fold change” value read?
Answer: Its value is 0.16.

Question: Which “shrunken log2 fold change” value does the source give for RRIRIRPPRLPRPRPRPQIYPRP here?
Answer: Its value is -1.08.

Question: How did the “shrunken log2 fold change” value turn out when RRIRIRPPRLPRPRPRPQKPPRP was run?
Answer: Its value is -0.00327.

Question: RRIRIRPPRLPRPRPRPQKQPRP was tested. Which “shrunken log2 fold change” value did it give?
Answer: The value was -0.128.

Question: RRIRIRPPRLPRPRPRPQLHPRP was tested. Which “shrunken log2 fold change” value did it give?
Answer: The value was -0.252.

Question: How did the “shrunken log2 fold change” value turn out when RRIRIRPPRLPRPRPRPQMEPRP was run?
Answer: Its value is -0.12.

Question: RRIRIRPPRLPRPRPRPQNEPRP was tested. Which “shrunken log2 fold change” value did it give?
Answer: Its value is -0.226.

Question: RRIRIRPPRLPRPRPRPQNRPRP was tested. Which “shrunken log2 fold change” value did it give?
Answer: The value was -0.386.

Question: With RRIRIRPPRLPRPRPRPQPIPRP as the sequence, how does the “shrunken log2 fold change” value read?
Answer: Its value is -0.00642.

Question: With RRIRIRPPRLPRPRPRPQPPPRP as the sequence, how does the “shrunken log2 fold change” value read?
Answer: Its value is -0.0122.

Question: Which “shrunken log2 fold change” value does the source give for RRIRIRPPRLPRPRPRPQREPRP here?
Answer: The value was 0.0374.

Question: For RRIRIRPPRLPRPRPRPQRKPRP, which “shrunken log2 fold change” value is on record?
Answer: Its value is -0.104.

Question: Which “shrunken log2 fold change” value does the source give for RRIRIRPPRLPRPRPRPQRLPRP here?
Answer: The value was 0.0966.

Question: How did the “shrunken log2 fold change” value turn out when RRIRIRPPRLPRPRPRPQRMPRP was run?
Answer: Its value is -0.387.

Question: How did the “shrunken log2 fold change” value turn out when RRIRIRPPRLPRPRPRPQRQPRP was run?
Answer: The value was 0.098.

Question: For RRIRIRPPRLPRPRPRPQVFPRP, which “shrunken log2 fold change” value is on record?
Answer: The value was -0.0107.

Question: Which “shrunken log2 fold change” value does the source give for RRIRIRPPRLPRPRPRPQVGPRP here?
Answer: The value was -0.094.

Question: With RRIRIRPPRLPRPRPRPQVHPRP as the sequence, how does the “shrunken log2 fold change” value read?
Answer: The value was -0.707.

Question: With RRIRIRPPRLPRPRPRPQVKPRP as the sequence, how does the “shrunken log2 fold change” value read?
Answer: The value was -0.405.

Question: RRIRIRPPRLPRPRPRPQVNPRP was tested. Which “shrunken log2 fold change” value did it give?
Answer: Its value is -0.444.

Question: How did the “shrunken log2 fold change” value turn out when RRIRIRPPRLPRPRPRPQVRPRP was run?
Answer: The value was -0.223.

Question: With RRIRIRPPRLPRPRPRPQWGPRP as the sequence, how does the “shrunken log2 fold change” value read?
Answer: Its value is -0.000367.

Question: For RRIRIRPPRLPRPRPRPQWWPRP, which “shrunken log2 fold change” value is on record?
Answer: The value was 0.0271.

Question: For RRIRIRPPRLPRPRPRPRAQPRP, which “shrunken log2 fold change” value is on record?
Answer: Its value is 0.27.

Question: Which “shrunken log2 fold change” value does the source give for RRIRIRPPRLPRPRPRPRARPRP here?
Answer: The value was 0.456.

Question: How did the “shrunken log2 fold change” value turn out when RRIRIRPPRLPRPRPRPRCGPRP was run?
Answer: The value was 0.0437.

Question: Which “shrunken log2 fold change” value does the source give for RRIRIRPPRLPRPRPRPRCLPRP here?
Answer: Its value is -0.228.

Question: Which “shrunken log2 fold change” value does the source give for RRIRIRPPRLPRPRPRPRCVPRP here?
Answer: Its value is -0.0162.

Question: Which “shrunken log2 fold change” value does the source give for RRIRIRPPRLPRPRPRPRDSPRP here?
Answer: The value was -0.346.

Question: How did the “shrunken log2 fold change” value turn out when RRIRIRPPRLPRPRPRPREHPRP was run?
Answer: Its value is -0.393.

Question: For RRIRIRPPRLPRPRPRPRGSPRP, which “shrunken log2 fold change” value is on record?
Answer: Its value is -0.189.

Question: How did the “shrunken log2 fold change” value turn out when RRIRIRPPRLPRPRPRPRHIPRP was run?
Answer: The value was -0.19.

Question: For RRIRIRPPRLPRPRPRPRHNPRP, which “shrunken log2 fold change” value is on record?
Answer: Its value is -0.245.
